The values below come from US10555963B2, “Klotho protein and related compounds for the treatment and diagnosis of cancer” (TEL HASHOMER MEDICAL RESEARCH INFRASTRUCTURE AND SERVICES …, priority 2007, dated 2020).

What all share (format): cell-based, human
One test concerns MCF-7 cells. In words: IGF-1-induced MCF-7 proliferation after klotho protein transfection. The following applies: HA-KL-transfected cells, 0.5% serum, IGF-1 24-96 hr; control pcDNA3 cells up to 40%. How it is done:
The medium was aspirated, and the cells were dissolved by dimethyl sulfoxide (DMSO).
Klotho protein is known to inhibit activation of the IGF-1 pathway in L6 myoblasts cells and rat hepatoma H4IIE cells (Kurosu et al., 2005). This pathway plays an important role in breast cancer tumorigenesis, and IGF-1 induces MCF-7 cell proliferation (Geier et al., 1995; Yee, 2006). In order to test the ability of klotho protein to modulate IGF-1-induced proliferation and survival, MCF-7 cells were transiently transfected with either pcDNA3 or pcDNA3-HA-KL, and grown in 0.5% serum with either IGF-1 or a control vehicle for 24-96 hr.

Test [1] deals with EGF pathway in MCF-7, MDA-MB-231 and HEK293 cells. In words: EGF pathway (ERK1/2) after klotho protein over-expression. The following applies: starved 48 hours. How it is done: The effects of over-expression of klotho protein on the insulin-stimulated pathway were also examined. The EGF pathway, which plays an important role in the pathogenesis of breast cancer, is not modulated by klotho protein in either L6 or H411E cells (Kurosu et al., 2005). In order to evaluate the effects of klotho protein on this pathway in MCF-7, MDA-MB-231 and HEK293 breast cancer cells, these cells were transfected with either pcDNA3-HA-KL or an empty vector, starved for 48 hours, treated with EGF, and analyzed for the expression and activity of the ERK1/2, which are downstream targets of the EGF pathway.

In test [2] the test system is insulin pathway in MCF-7 cells. In words: Insulin pathway activation after klotho protein over-expression. The following applies: insulin stimulation.
Test [3] deals with insulin pathway in HEK 293 cells. The test is described as above. The following applies: insulin stimulation.
Another test deals with C/EBPβ in MCF-7 cells. In words: C/EBPβ levels after klotho protein over-expression. The following applies: over-expression vs empty vector. How it is done: In further experiments, MCF-7, MDA-MB-231 or HEK-293 cells were transfected with either pcDNA3-HA-KL or empty vector and treated with IGF-1 (12.5 nM, 15 min).
C/EBPβ is a down-stream target of the GSK3β pathway, which is suppressed following stimulation by IGF-1 (Li et al., 2007). […] The effects of over-expression of klotho protein on C/EBPβ levels were therefore analyzed.

Test [4] relates to IGF-1 pathway in Panc1 cells. In words: IGF-1 pathway in Panc1 cells after klotho protein over-expression (immunoblot). As to conditions: IGF-1 12.5 nM, 15 min. How it is done: For pancreatic cells, protein extraction and Western blotting was performed as described (Wolf et al., 2008).
Panc1 cells were transfected with either klotho protein-HA expression plasmid (KL-HA) or a control vector (pcDNA3). After 24 hrs, cells were serum starved for 48 hr and treated with IGF-1 (12.5 nM, 15 min). Following treatment, cells were harvested and proteins were resolved and immunoblotted using antibodies directed against phosphorylated (p) and total (t) IGF-1R, p- and t-AKT, p- and t-ERK1/2.
(Immunoblotting shows a protein as a band on a membrane.)

B1: klotho protein: full length mouse Klotho (SEQ ID NO. 3) over-expressed in cells from HA-tagged expression vector pcDNA3-HA-KL (protein)
chain: MLARAPPRRPPRLVLLRLLLLHLLLLALRARCLSAEPGQGAQTWARFARAPAPEAAGLLHDTFPDGFLWAVGSAAYQTEGGWRQHGKGASIWDTFTHHSGAAPSDSPIVVAPSGAPSPPLSSTGDVASDSYNNVYRDTEGLRELGVTHYRFSISWARVLPNGTAGTPNREGLRYYRRLLERLRELGVQPVVTLYHWDLPQRLQDTYGGWANRALADHFRDYAELCFRHFGGQVKYWITIDNPYVVAWHGYATGRLAPGVRGSSRLGYLVAHNLLLAHAKVWHLYNTSFRPTQGGRVSIALSSHWINPRRMTDYNIRECQKSLDFVLGWFAKPIFIDGDYPESMKNNLSSLLPDFTESEKRLIRGTADFFALSFGPTLSFQLLDPNMKFRQLESPNLRQLLSWIDLEYNHPPIFIVENGWFVSGTTKRDDAKYMYYLKKFIMETLKAIRLDGVDVIGYTAWSLMDGFEWHRGYSIRRGLFYVDFLSQDKELLPKSSALFYQKLIEDNGFPPLPENQPLEGTFPCDFAWGVVDNYVQVDTTLSQFTDPNVYLWDVHHSKRLIKVDGVVAKKRKPYCVDFSAIRPQITLLREMRVTHFRFSLDWALILPLGNQTQVNHTVLHFYRCMISELVHANITPVVALWQPAAPHQGLPHALAKHGAWENPHTALAFADYANLCFKELGHWVNLWITMNEPNTRNMTYRAGHHLLRAHALAWHLYDDKFRAAQKGKISIALQADWIEPACPFSQNDKEVAERVLEFDIGWLAEPIFGSGDYPRVMRDWLNQKNNFLLPYFTEDEKKLVRGSFDFLAVSHYTTILVDWEKEDPMKYNDYLEVQEMTDITWLNSPSQVAVVPWGLRKVLNWLRFKYGDLPMYVTANGIDDDPHAEQDSLRIYYIKNYVNEALKAYVLDDINLCGYFAYSLSDRSAPKSGFYRYAANQFEPKPSMKHYRRIIDSNGFLGSGTLGRFCPEEYTVCTECGFFQTRKSLLVFISFLVFTFIISLALIFHYSKKGQRSYK
modifications: HA tag
On to B1, for which the “increase of cell proliferation by IGF-1” value with MCF-7 cells was 25%. Also, the “expression and phosphorylation of ERK1/2 after EGF” value in test [1] was “affected neither the expression nor phosphorylation”. For the same molecule, the results for the “activation of the insulin pathway” value in test [2] and in test [3] were “inhibited” and “not”, respectively. For the same molecule, in the test with C/EBPβ in MCF-7 cells, the C/EBPβ levels entry is “significant up-regulation”. For the same molecule, the “phosphorylation of IGF-1R, AKT1 and ERK1/2” value in test [4] is “reduced phosphorylation”.
